Test results published in publication PMC13464484, “Ancestral proteins trace the emergence of substrate specificity and oligomerization within bacterial DEDDy dinucleases” (Science Advances, 2026).

How the values were obtained:
[1] = target: Alphaproteobacterial NrnC ortholog from Sphingomonas (Sphingomonas (genus only)); assay: mass photometry; protein at 100 nM in phosphate-buffered saline, TwoMP instrument
[2] = target: NrnC ortholog from Methylobacter (Methylobacter (genus only)); assay: SEC-MALS; purified protein at 1 to 2 mg/ml (~40 to 80 uM) on Superdex 200 Increase 10/300 GL in gel-filtration buffer (25 mM Hepes-NaOH, 150 mM NaCl, pH 7.5; 500 mM NaCl for ancestor A0), room temperature
[3] = target: NrnC ortholog from Thermosynechococcus (Thermosynechococcus (genus only)); assay: as above
[4] = target: diDNase ortholog from Actinomadura (Actinomadura (genus only)); assay: as above
[5] = target: diDNase ortholog from Mycobacterium (Mycobacterium (genus only)); assay: […] (~40 to 80 uM) […], pH 7.5; […], room temperature
[6] = target: diDNase ortholog from Nocardia (Nocardia (genus only)); assay: SEC-MALS; purified protein at 1 to 2 mg/ml (~40 to 80 uM) on Superdex 200 Increase 10/300 GL in gel-filtration buffer (25 mM Hepes-NaOH, 150 mM NaCl, pH 7.5; 500 mM NaCl for ancestor A0), room temperature
[7] = target: the molecule itself; assay: mass photometry; protein at 100 nM in phosphate-buffered saline, TwoMP instrument

Alphaproteobacterial NrnC ortholog from Sphingomonas (enzyme)
percent dimers [1]: > 85%
stoichiometry N [1]: 2

NrnC ortholog from Methylobacter (enzyme)
stoichiometry N [2]: 8

NrnC ortholog from Thermosynechococcus (enzyme)
stoichiometry N [3]: 8

diDNase ortholog from Actinomadura (enzyme)
stoichiometry N [4]: 2

diDNase ortholog from Mycobacterium (enzyme)
stoichiometry N [5]: 2

diDNase ortholog from Nocardia (enzyme)
stoichiometry N [6]: 2

B1: Alphaproteobacterial NrnC ortholog from Caulobacter (enzyme)
chain: MANFVHEGDLPDGVFADAEIIAIDSETMGLRLRRDPLCVVQLSAGDGDAHVVRLSRPDYDCPNLKALLTNPKVLKLFHFGRFDIAMFELHLGVVTAPVYCTKIASKLARTYTDRHGLKDVTRELLGVELSKVQQSSDWGAPSLSVDQVAYAASDVLHLHGLRLKLNAMLEREGRMALAQHAFDYLPHRASLDLAGWEEMDIFAHS
stoichiometry N [7]: 2
